Data on 1 molecule can be found in PMC8563363.

Common to all, as to assay: EMSA
Series [1] addresses T1, SMC1 head 4E (Homo sapiens, UniProt Q14683;O60216 1-200+=GGGGG+1030-1233;531-631, K52E;R57E;K59E;R62E;internal_change).
T1 sequence 1: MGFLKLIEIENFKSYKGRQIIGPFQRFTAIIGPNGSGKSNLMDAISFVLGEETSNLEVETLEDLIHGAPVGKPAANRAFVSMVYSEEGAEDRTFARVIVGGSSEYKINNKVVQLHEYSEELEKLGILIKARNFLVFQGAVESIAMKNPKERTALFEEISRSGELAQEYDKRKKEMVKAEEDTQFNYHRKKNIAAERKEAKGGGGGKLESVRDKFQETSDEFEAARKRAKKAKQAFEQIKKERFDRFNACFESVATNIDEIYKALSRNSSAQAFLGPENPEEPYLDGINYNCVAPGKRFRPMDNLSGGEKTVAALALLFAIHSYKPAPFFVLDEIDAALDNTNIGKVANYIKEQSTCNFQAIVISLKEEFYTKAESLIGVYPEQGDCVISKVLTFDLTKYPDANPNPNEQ
T1 sequence 2: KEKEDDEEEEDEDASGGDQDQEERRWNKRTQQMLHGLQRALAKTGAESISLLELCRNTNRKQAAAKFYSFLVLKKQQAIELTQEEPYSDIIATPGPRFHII

Series [2] deals with hinge (SMC1-SMC3) (Homo sapiens, UniProt Q9UQE7;Q14683 484-696;461-685).
Sequence of hinge (SMC1-SMC3) (Q9UQE7 484-696, chain 1 of 2): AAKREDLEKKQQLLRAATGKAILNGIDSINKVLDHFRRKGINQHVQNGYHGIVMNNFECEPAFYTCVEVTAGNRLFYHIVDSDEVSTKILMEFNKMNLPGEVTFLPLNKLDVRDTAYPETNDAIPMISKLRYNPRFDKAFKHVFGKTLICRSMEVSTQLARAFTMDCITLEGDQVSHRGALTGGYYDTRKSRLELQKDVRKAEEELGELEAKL
Sequence of hinge (SMC1-SMC3) (Q14683 461-685, chain 2 of 2): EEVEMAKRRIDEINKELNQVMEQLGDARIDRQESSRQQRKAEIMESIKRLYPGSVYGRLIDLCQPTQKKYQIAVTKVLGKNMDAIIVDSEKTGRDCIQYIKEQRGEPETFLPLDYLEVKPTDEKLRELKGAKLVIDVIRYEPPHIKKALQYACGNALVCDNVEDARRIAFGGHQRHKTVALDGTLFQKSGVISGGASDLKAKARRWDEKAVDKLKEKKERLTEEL
For series [3], the target named is deltaN-NIPBL2A (Homo sapiens, UniProt Q6KC79 1-21+1041-2804, R1867A;K1870A;internal_change).
In series [4] the target is T2, SMC3 head (Halo-SMC3HD-SCC1(Nt)) (Homo sapiens, UniProt Q9UQE7 1-251+=GGGGG+956-1216+=[…]+O60216:2-75, internal_change).
T2 sequence: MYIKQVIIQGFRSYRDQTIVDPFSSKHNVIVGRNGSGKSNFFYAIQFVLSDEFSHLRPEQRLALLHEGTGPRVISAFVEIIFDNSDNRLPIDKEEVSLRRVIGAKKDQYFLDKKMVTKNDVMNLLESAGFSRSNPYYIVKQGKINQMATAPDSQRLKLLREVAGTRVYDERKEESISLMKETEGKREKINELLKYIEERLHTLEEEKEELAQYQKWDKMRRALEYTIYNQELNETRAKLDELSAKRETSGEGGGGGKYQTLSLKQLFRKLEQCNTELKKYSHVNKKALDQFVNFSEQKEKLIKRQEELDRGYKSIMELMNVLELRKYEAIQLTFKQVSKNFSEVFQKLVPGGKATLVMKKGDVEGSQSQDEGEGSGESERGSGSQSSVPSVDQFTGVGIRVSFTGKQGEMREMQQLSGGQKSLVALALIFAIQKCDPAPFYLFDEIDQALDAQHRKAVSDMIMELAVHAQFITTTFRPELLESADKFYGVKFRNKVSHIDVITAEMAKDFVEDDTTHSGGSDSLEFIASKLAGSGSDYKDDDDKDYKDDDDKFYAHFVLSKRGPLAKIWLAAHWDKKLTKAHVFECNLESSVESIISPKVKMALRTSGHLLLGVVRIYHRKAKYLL

Series [5] deals with T3, deltaN-STAG1/SCC1(int) (Homo sapiens, UniProt Q8WVM7;O60216 71-1258;281-420).
T3 sequence 1: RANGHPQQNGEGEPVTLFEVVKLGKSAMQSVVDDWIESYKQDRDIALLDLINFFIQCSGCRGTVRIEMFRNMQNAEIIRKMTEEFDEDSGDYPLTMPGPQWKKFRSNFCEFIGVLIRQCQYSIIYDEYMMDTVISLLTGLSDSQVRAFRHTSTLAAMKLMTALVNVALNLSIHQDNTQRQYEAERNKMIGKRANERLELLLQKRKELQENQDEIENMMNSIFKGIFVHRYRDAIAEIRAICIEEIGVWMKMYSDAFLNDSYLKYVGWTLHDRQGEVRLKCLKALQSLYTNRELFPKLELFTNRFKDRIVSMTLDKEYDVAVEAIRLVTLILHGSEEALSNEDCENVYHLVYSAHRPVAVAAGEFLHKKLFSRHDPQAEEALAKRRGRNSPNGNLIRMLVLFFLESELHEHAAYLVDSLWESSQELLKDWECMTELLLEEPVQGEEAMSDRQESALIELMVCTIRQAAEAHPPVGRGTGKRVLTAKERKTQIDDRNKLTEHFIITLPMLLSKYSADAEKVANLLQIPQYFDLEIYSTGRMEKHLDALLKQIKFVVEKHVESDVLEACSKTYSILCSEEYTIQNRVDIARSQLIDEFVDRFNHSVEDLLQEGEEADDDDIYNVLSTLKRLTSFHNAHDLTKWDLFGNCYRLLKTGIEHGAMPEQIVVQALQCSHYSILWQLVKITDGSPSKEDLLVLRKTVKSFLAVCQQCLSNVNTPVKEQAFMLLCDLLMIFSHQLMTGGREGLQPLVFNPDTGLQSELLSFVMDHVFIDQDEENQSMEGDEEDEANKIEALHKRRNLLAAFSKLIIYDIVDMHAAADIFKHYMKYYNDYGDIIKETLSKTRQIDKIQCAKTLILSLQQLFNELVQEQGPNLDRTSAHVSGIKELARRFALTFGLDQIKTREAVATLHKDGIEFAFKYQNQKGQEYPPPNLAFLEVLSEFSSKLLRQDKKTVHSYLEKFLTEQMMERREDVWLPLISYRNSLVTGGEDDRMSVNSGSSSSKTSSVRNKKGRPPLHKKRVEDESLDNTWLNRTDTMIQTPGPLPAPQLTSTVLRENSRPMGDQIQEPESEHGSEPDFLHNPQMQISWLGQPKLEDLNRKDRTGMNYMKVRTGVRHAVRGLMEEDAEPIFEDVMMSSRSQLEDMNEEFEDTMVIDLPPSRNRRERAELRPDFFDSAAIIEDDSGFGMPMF
T3 sequence 2: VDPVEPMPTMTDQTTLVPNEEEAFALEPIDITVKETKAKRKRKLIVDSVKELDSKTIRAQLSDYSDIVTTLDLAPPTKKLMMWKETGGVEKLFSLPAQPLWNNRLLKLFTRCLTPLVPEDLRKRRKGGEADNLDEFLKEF

B1: 40 bp dsDNA EMSA probe (dsDNA)
DNA 1: GCGGGTAATCCAGAGCCAGACGAGCACTACGAACAACTAA
DNA 2: TTAGTTGTTCGTAGTGCTCGTCTGGCTCTGGATTACCCGC
On to B1, for which the binding result in series [1] is on record as “no binding”; in series [2], “binds”; in series [3] it was “no binding”; in series [4] it was “binds”; in series [5], “binds”.
